Experimental findings from PMC7948458 are described below.

By Kd is commonly meant the equilibrium constant for the complex coming apart. Low readings indicate tighter binding, high ones weaker binding.

Holding throughout (assay): EMSA
(A gel shift assay detects complexes by their altered migration in electrophoresis.)

For one series, the target named is OGG1 C241S C241S (UniProt O15527). The following applies: EMSA: 0.1 nM DNA, 0.5-4000 nM OGG1, 25 mM Tris-HCl pH 7.6, 175 nM NaCl (sic), 1 mM EDTA, 1 mM DTT, 300 ug/ml BSA, 12% glycerol, 15 min, 4 C.
For a further series, the target named is OGG1 C255S C255S (UniProt O15527). The following applies: 8-oxoguanine at position 16 of strand 1, opposite C; EMSA: 0.1 nM DNA, 0.5-4000 nM OGG1, 25 mM Tris-HCl pH 7.6, 175 nM NaCl (sic), 1 mM EDTA, 1 mM DTT, 300 ug/ml BSA, 12% glycerol, 15 min, 4 C.
For a further series, the target named is OGG1 C146S C146S (UniProt O15527). The following applies: EMSA: 0.1 nM DNA, 0.5-4000 nM OGG1, 25 mM Tris-HCl pH 7.6, 175 nM NaCl (sic), 1 mM EDTA, 1 mM DTT, 300 ug/ml BSA, 12% glycerol, 15 min, 4 C.
In the next series the target is OGG1 WT (UniProt O15527). The settings on record: EMSA: 0.1 nM DNA, 0.5-4000 nM OGG1, 25 mM Tris-HCl pH 7.6, 175 nM NaCl (sic), 1 mM EDTA, 1 mM DTT, 300 ug/ml BSA, 12% glycerol, 15 min, 4 C.
Another series addresses OGG1 C28S C28S (UniProt O15527). The following applies: EMSA: 0.1 nM DNA, 0.5-4000 nM OGG1, 25 mM Tris-HCl pH 7.6, 175 nM NaCl (sic), 1 mM EDTA, 1 mM DTT, 300 ug/ml BSA, 12% glycerol, 15 min, 4 C.
The target of another series is OGG1 C253S C253S (UniProt O15527). The following applies: 8-oxoguanine at position 16 of strand 1, opposite C; EMSA: 0.1 nM DNA, 0.5-4000 nM OGG1, 25 mM Tris-HCl pH 7.6, 175 nM NaCl (sic), 1 mM EDTA, 1 mM DTT, 300 ug/ml BSA, 12% glycerol, 15 min, 4 C.
A further series addresses OGG1 C140S C140S (UniProt O15527). The following applies: 8-oxoguanine at position 16 of strand 1, opposite C; EMSA: 0.1 nM DNA, 0.5-4000 nM OGG1, 25 mM Tris-HCl pH 7.6, 175 nM NaCl (sic), 1 mM EDTA, 1 mM DTT, 300 ug/ml BSA, 12% glycerol, 15 min, 4 C.
Where [1] appears, read: 8-oxoguanine at position 16 of strand 1, opposite C.
Where [2] appears, read: tetrahydrofuran abasic analog at position 16 of strand 1 (written N), opposite base Y is C or A, not stated for this assay (written N).

Chain of OGG1 WT (O15527 whole entry): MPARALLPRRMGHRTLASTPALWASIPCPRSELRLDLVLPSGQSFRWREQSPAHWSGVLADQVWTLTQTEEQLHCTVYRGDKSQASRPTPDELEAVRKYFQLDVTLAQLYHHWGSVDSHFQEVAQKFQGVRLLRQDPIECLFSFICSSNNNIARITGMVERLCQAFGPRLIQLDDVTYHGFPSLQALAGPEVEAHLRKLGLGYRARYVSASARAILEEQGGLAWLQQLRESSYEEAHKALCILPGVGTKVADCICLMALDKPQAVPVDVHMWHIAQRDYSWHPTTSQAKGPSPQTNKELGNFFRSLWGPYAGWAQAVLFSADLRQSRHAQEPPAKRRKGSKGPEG
Chain of OGG1 C28S C28S (O15527 whole entry C28S): as the sequence (O15527 whole entry) above, with C28S counted along it
Chain of OGG1 C241S C241S (O15527 whole entry C241S): as the sequence (O15527 whole entry) above, with C241S counted along it
Chain of OGG1 C146S C146S (O15527 whole entry C146S): as the sequence (O15527 whole entry) above, with C146S counted along it
Chain of OGG1 C255S C255S (O15527 whole entry C255S): as the sequence (O15527 whole entry) above, with C255S counted along it
Chain of OGG1 C253S C253S (O15527 whole entry C253S): as the sequence (O15527 whole entry) above, with C253S counted along it
Chain of OGG1 C140S C140S (O15527 whole entry C140S): as the sequence (O15527 whole entry) above, with C140S counted along it

Regarding “CGTTCAACGTGCACTGACAGCACGTCCCAT (double strand) [8-oxoG:C 30-mer duplex]”, the binding signal (fold increase in Kd vs WT) with OGG1 C241S C241S (setting [1]), with OGG1 C255S C255S, with OGG1 C146S C146S (setting [1]), with OGG1 C28S C28S (setting [1]), in the series with OGG1 C253S C253S and with OGG1 C140S C140S was 10 throughout. In the series with OGG1 WT (setting [1]), this sequence had a Kd of 1.9 nM.

In turn, “CGTTCAACGTGCACTGACAGCACGTCCCAT / ATGGGACGTGCTGTAAGTGCACGTTGAACG [8-oxoG:A 30-mer duplex]” yielded a Kd with OGG1 WT (8-oxoguanine at position 16 of strand 1, opposite A) of 201 nM.

In the case of “CGTTCAACGTGCACTNACAGCACGTCCCAT (double strand) [THF 30-mer duplex]”, the dissociation constant Kd with OGG1 C241S C241S (setting [2]) stood at 3.5 nM; with OGG1 C146S C146S (setting [2]) it was 9.9 nM; with OGG1 WT (setting [2]), 0.6 nM; in the series with OGG1 C28S C28S (setting [2]), 2.2 nM.
